Laboratory results: FireProtDB (doi:10.1016/0022-2836(92)90560-7)

B1: Ribonuclease, P00648 (parent)
chain: MMKMEGIALKKRLSWISVCLLVLVSAAGMLFSTAAKTETSSHKAHTEAQVINTFDGVADYLQTYHKLPDNYITKSEAQALGWVASKGNLADVAPGKSIGGDIFSNREGKLPGKSGRTWREADINYTSGFRNSDRILYSSDWLIYKTTDHYQTFTKIR

Variants of: B1
Conditions: Bacillus amyloliquefaciens, 25 °C, Urea, Fluorescence, MES/Tris 150 mM/150 mM/, NaCl 1 M, structure 1BNI, whole UniProt chain shown

Variant	ddG of mutation (higher = less stable) (pH 5.8)	denaturant m value (pH 5.8)	denaturant midpoint (higher = more stable) (pH 5.8)	unfolding free energy (pH 5.8)	ddG of mutation (higher = less stable) (pH 9)	denaturant m value (pH 9)	denaturant midpoint (higher = more stable) (pH 9)	unfolding free energy (pH 9)
H65G	0.98 kcal/mol	1.85 kcal/mol/M	5.12 M	10 kcal/mol	-0.51 kcal/mol	2.07 kcal/mol/M	5.06 M	9.92 kcal/mol
H65G W141L	–	–	–	–	–	1.8 kcal/mol/M	4.96 M	9.72 kcal/mol
W141L	1.59 kcal/mol	2 kcal/mol/M	4.8 M	9.41 kcal/mol	0.66 kcal/mol	1.98 kcal/mol/M	4.47 M	8.75 kcal/mol
W141F	1.06 kcal/mol	1.89 kcal/mol/M	5.07 M	9.94 kcal/mol	0.6 kcal/mol	2.01 kcal/mol/M	4.5 M	8.81 kcal/mol
W141Y	1.27 kcal/mol	1.98 kcal/mol/M	4.96 M	9.73 kcal/mol	0.99 kcal/mol	2 kcal/mol/M	4.29 M	8.42 kcal/mol
